{"source": "patent US12077763B2", "about": "“RNA-based control of powdery mildew” (Greenlight Biosciences, Inc., priority 2021, dated 2024)", "molecules": {"B1": {"name": "GS3622 (nucleic acid)", "sense": "AUGAAGUGCAGGAUUUUUCUCUAUAAGUUUCUUACGUUGUAGCGCCGAAGCUUCUCUAAGUUUAAUCUCUGAUGGAGAUAAAACGUUAUAUAUAGGCGUACCAACAGCAAUUGUCCCCUCUUUAAGUAGAUAUAACUUUCGCUUAUCUUUGUCUCGGUCAGUGCGGAAGUUUGUCCCAGCUUCUGUAAGUUUUACAGCUUUUUCUCGAUUAACUGCUCUUGACACUUGAAGUACGCGACCUUCUAUUGUGUAUAAGCCAUUCUUAUCAGCAGUUUCAUCCUCUAAAAUAGAGUUUUUAGCUUUAACAGCGUUUGCACCACUUUUGAAGGUACGAGGUGCACCAUGGUAACAAGAGUCCGCAUCUUCUUGUCUAUAGAAGCAAACAAAGCCAGUGCCUUUA", "antisense": "UAAAGGCACUGGCUUUGUUUGCUUCUAUAGACAAGAAGAUGCGGACUCUUGUUACCAUGGUGCACCUCGUACCUUCAAAAGUGGUGCAAACGCUGUUAAAGCUAAAAACUCUAUUUUAGAGGAUGAAACUGCUGAUAAGAAUGGCUUAUACACAAUAGAAGGUCGCGUACUUCAAGUGUCAAGAGCAGUUAAUCGAGAAAAAGCUGUAAAACUUACAGAAGCUGGGACAAACUUCCGCACUGACCGAGACAAAGAUAAGCGAAAGUUAUAUCUACUUAAAGAGGGGACAAUUGCUGUUGGUACGCCUAUAUAUAACGUUUUAUCUCCAUCAGAGAUUAAACUUAGAGAAGCUUCGGCGCUACAACGUAAGAAACUUAUAGAGAAAAAUCCUGCACUUCAU"}, "B2": {"name": "GS3616 (nucleic acid)", "sense": "UUAAAAGUUGCGGUUUAACUUAAGCUGUAGCCGCAACAGUUUCAGCUGUCCCAGCUAGUCCUUCUGAUUGAAGUUUAUCAUUAGUAAUCCCUUUAGCGAUGGCGCCAUUAGUACCUUCGGUUGAGUUGCCAACAUUAGAUACUUCGCCAGCACCAUCAGAUACAUGUGUAGUUAAUUCUUCAGAGGUCUUGUCCGGACUAUCUAUUGCGAUCUUUACUGCAAUCUCACGACCUUGAACUUCUUUUCCAUUCAUUUCGGCAACAGCCCUAUUUUGAAGUUCAUUAGAUGCUAAGUUCACAAAGCCAAACCCACGGCCUUUCCGAGGUUCGUUGCGGGCCUGAAGCUUUUUAACCAUGAAUUUUGGAAUAGGACGCAGAGCAAUUUUGGCAGAUACUGGUUC", "antisense": "GAACCAGUAUCUGCCAAAAUUGCUCUGCGUCCUAUUCCAAAAUUCAUGGUUAAAAAGCUUCAGGCCCGCAACGAACCUCGGAAAGGCCGUGGGUUUGGCUUUGUGAACUUAGCAUCUAAUGAACUUCAAAAUAGGGCUGUUGCCGAAAUGAAUGGAAAAGAAGUUCAAGGUCGUGAGAUUGCAGUAAAGAUCGCAAUAGAUAGUCCGGACAAGACCUCUGAAGAAUUAACUACACAUGUAUCUGAUGGUGCUGGCGAAGUAUCUAAUGUUGGCAACUCAACCGAAGGUACUAAUGGCGCCAUCGCUAAAGGGAUUACUAAUGAUAAACUUCAAUCAGAAGGACUAGCUGGGACAGCUGAAACUGUUGCGGCUACAGCUUAAGUUAAACCGCAACUUUUAA"}, "B3": {"name": "GS3618 (nucleic acid)", "sense": "CGUAAGCCUUUGAUGGGUUCAGAAAUGUAGAUACAGAUUCGUAUGCGAGAAGUUGAAGUGCUGUAAAUGGUACAGUCAUGGAAAGAGUAGUUGGAUACGAGAUAUAGAAGGCUGUGAUGCCUUCAGUGCGAUAGAUAUAGCGGGCACAAUCACUCAGUGAUCUAUAAAUUUUGCGAGAGUUAUGCAUUUGCAUUCUUUGCUUUAUUACAUCAAAUGGGUUCAUUAAAGCAUCACUUGCAAUUGUUGCGCAUGCCCCACUUGUAACUAUGUAGCUUCAGUAAGUGCUCAAUAUCAAGGAUAAAUUGGCGAUGUAGUCAUAUAUGUCUGAUUCCUUAAUCAAAAUUCUUAAUACAGACCUGCUGCAAUAGGAUGAUGAGCUCCUGUUUGAUUACCUCCCAUG", "antisense": "CAUGGGAGGUAAUCAAACAGGAGCUCAUCAUCCUAUUGCAGCAGGUCUGUAUUAAGAAUUUUGAUUAAGGAAUCAGACAUAUAUGACUACAUCGCCAAUUUAUCCUUGAUAUUGAGCACUUACUGAAGCUACAUAGUUACAAGUGGGGCAUGCGCAACAAUUGCAAGUGAUGCUUUAAUGAACCCAUUUGAUGUAAUAAAGCAAAGAAUGCAAAUGCAUAACUCUCGCAAAAUUUAUAGAUCACUGAGUGAUUGUGCCCGCUAUAUCUAUCGCACUGAAGGCAUCACAGCCUUCUAUAUCUCGUAUCCAACUACUCUUUCCAUGACUGUACCAUUUACAGCACUUCAACUUCUCGCAUACGAAUCUGUAUCUACAUUUCUGAACCCAUCAAAGGCUUACG"}, "B4": {"name": "GS3615 (nucleic acid)", "sense": "UAUCAUUAGUAAUCCCUUUAGCGAUGGCGCCAUUAGUACCUUCGGUUGAGUUGCCAACAUUAGAUACUUCGCCAGCACCAUCAGAUACAUGUGUAGUUAAUUCUUCAGAGGUCUUGUCCGGACUAUCUAUUGCGAUCUUUACUGCAAUCUCACGACCUUGAACUUCUUUUCCAUUCAUUUCGGCAACAGCCCUAUUUUGAAGUUCAUUAGAUGCUAAGUUCACAAAGCCAAACCCACGGCCUUUCCGAGG", "antisense": "CCUCGGAAAGGCCGUGGGUUUGGCUUUGUGAACUUAGCAUCUAAUGAACUUCAAAAUAGGGCUGUUGCCGAAAUGAAUGGAAAAGAAGUUCAAGGUCGUGAGAUUGCAGUAAAGAUCGCAAUAGAUAGUCCGGACAAGACCUCUGAAGAAUUAACUACACAUGUAUCUGAUGGUGCUGGCGAAGUAUCUAAUGUUGGCAACUCAACCGAAGGUACUAAUGGCGCCAUCGCUAAAGGGAUUACUAAUGAUA"}, "B5": {"name": "GS3620 (nucleic acid)", "sense": "AGUUGAAGUGCUGUAAAUGGUACAGUCAUGGAAAGAGUAGUUGGAUACGAGAUAUAGAAGGCUGUGAUGCCUUCAGUGCGAUAGAUAUAGCGGGCACAAUCACUCAGUGAUCUAUAAAUUUUGCGAGAGUUAUGCAUUUGCAUUCUUUGCUUUAUUACAUCAAAUGGGUUCAUUAAAGCAUCACUUGCAAUUGUUGCGCAUGCCCCACUUGUAACUAUGUAGCUUCAGUAAGUGCUCAAUAUCAAGGAUAAAUUGGCGAUGUAGUCAUAUAUGUCUGAUUCCUUAAUCAAAAUUCUUAAU", "antisense": "AUUAAGAAUUUUGAUUAAGGAAUCAGACAUAUAUGACUACAUCGCCAAUUUAUCCUUGAUAUUGAGCACUUACUGAAGCUACAUAGUUACAAGUGGGGCAUGCGCAACAAUUGCAAGUGAUGCUUUAAUGAACCCAUUUGAUGUAAUAAAGCAAAGAAUGCAAAUGCAUAACUCUCGCAAAAUUUAUAGAUCACUGAGUGAUUGUGCCCGCUAUAUCUAUCGCACUGAAGGCAUCACAGCCUUCUAUAUCUCGUAUCCAACUACUCUUUCCAUGACUGUACCAUUUACAGCACUUCAACU"}, "B6": {"name": "GS3617 (nucleic acid)", "sense": "UCAUGGAAAGAGUAGUUGGAUACGAGAUAUAGAAGGCUGUGAUGCCUUCAGUGCGAUAGAUAUAGCGGGCACAAUCACUCAGUGAUCUAUAAAUUUUGCGAGAGUUAUGCAUUUGCAUUCUUUGCUUUAUUACAUCAAAUGGGUUCAUUAAAGCAUCACUUGCAAUUGUUGCGCAUGCCCCACUUGUAACUAUGUAGCUUCAGUAAGUGCUCAAUAUCAAGGAUAAAUUGGCGAUGUAGUCAUAUAUGUC", "antisense": "GACAUAUAUGACUACAUCGCCAAUUUAUCCUUGAUAUUGAGCACUUACUGAAGCUACAUAGUUACAAGUGGGGCAUGCGCAACAAUUGCAAGUGAUGCUUUAAUGAACCCAUUUGAUGUAAUAAAGCAAAGAAUGCAAAUGCAUAACUCUCGCAAAAUUUAUAGAUCACUGAGUGAUUGUGCCCGCUAUAUCUAUCGCACUGAAGGCAUCACAGCCUUCUAUAUCUCGUAUCCAACUACUCUUUCCAUGA"}, "B7": {"name": "GS1813: dsRNA trigger SEQ ID NO 117; gene target hypothetical_protein_BC1G_11193 (nucleic acid)", "DNA": "CAATACTTATAGACATAATGTATATTGATAATAATCTAGTGTTGCATATCATTGATGAAGCAACTAATTTTCAGGCGGCTAGGTGGCTCAATAATATCTCTGCCAAACATACATGGGATGCCATACGTGCTTGTTGGATTGATACTTACGTTGGGCCCCCAGACTGCATAATAACAGATGCTGGTAAAAACTTCGTTAGCAAGGAATTTAATCAAAATGCATCATCAATGGAAATTTCGGTGAAAAACGTTCCTGTTGAAGCGCATTGGTCAATAGGAAAAATAGAGCGCTATCACTCTTGCATTCGTCGAGCTTATAAAATTATATCAGAAGAACTAGCTGGAACCGGAATCGGCAAAGAGTTTATGCTCCAGATGGCGGTAAAAGCCATAAACGACACAGCCGGACCTAATGGCTTAGTCCCAACTCTTTTAGTTTTTGGAGCTTATCCAAGAATGTCAAATTTAGACCCTCCTATGCCATCCATAATTCAACGGGCTGCTGCAATCAAAAAGGCGATGCTAGAGATAAGTAAATTACGCGCAAAGCTAACCGTGAATAGTGCTCTAAACCATCGAAACGGACCGAATACGAATA"}, "B8": {"name": "GS3619 (nucleic acid)", "sense": "UGUAGAUACAGAUUCGUAUGCGAGAAGUUGAAGUGCUGUAAAUGGUACAGUCAUGGAAAGAGUAGUUGGAUACGAGAUAUAGAAGGCUGUGAUGCCUUCAGUGCGAUAGAUAUAGCGGGCACAAUCACUCAGUGAUCUAUAAAUUUUGCGAGAGUUAUGCAUUUGCAUUCUUUGCUUUAUUACAUCAAAUGGGUUCAUUAAAGCAUCACUUGCAAUUGUUGCGCAUGCCCCACUUGUAACUAUGUAGCUUCAGUAAGUGCUCAAUAUCAAGGAUAAAUUGGCGAUGUAGUCAUAUAUGUCUGAUUCCUUAAUCAAAAUUCUUAAUACAGACCUGCUGCAAUAGGAUGAUG", "antisense": "CAUCAUCCUAUUGCAGCAGGUCUGUAUUAAGAAUUUUGAUUAAGGAAUCAGACAUAUAUGACUACAUCGCCAAUUUAUCCUUGAUAUUGAGCACUUACUGAAGCUACAUAGUUACAAGUGGGGCAUGCGCAACAAUUGCAAGUGAUGCUUUAAUGAACCCAUUUGAUGUAAUAAAGCAAAGAAUGCAAAUGCAUAACUCUCGCAAAAUUUAUAGAUCACUGAGUGAUUGUGCCCGCUAUAUCUAUCGCACUGAAGGCAUCACAGCCUUCUAUAUCUCGUAUCCAACUACUCUUUCCAUGACUGUACCAUUUACAGCACUUCAACUUCUCGCAUACGAAUCUGUAUCUACA"}}, "data": [{"system": "E. necator", "assay": "Leaf disc assay, dry inoculum (settling tower), decrease in disease severity / hyphal growth (Example 2)", "settings": "decrease in disease severity (hyphal growth) relative to untreated control; time point 1 (untreated control hyphal growth ≥50%); value ± SE", "units": {"% decrease =/− SE TP1": "%"}, "values": [{"molecule": "B1", "% decrease =/− SE TP1": "17 ± 4"}, {"molecule": "B2", "% decrease =/− SE TP1": "14 ± 4"}, {"molecule": "B3", "% decrease =/− SE TP1": "27 ± 4"}, {"molecule": "B4", "% decrease =/− SE TP1": "4 ± 5"}, {"molecule": "B5", "% decrease =/− SE TP1": "6 ± 8"}, {"molecule": "B6", "% decrease =/− SE TP1": "22 ± 6"}, {"molecule": "B7", "% decrease =/− SE TP1": "11 ± 5"}, {"molecule": "B8", "% decrease =/− SE TP1": "9 ± 2"}]}, {"system": "E. necator", "assay": "Leaf disc assay, dry inoculum (settling tower), decrease in disease severity / hyphal growth (Example 2)", "settings": "decrease in disease severity (hyphal growth) relative to untreated control; time point 2; value ± SE", "units": {"% decrease =/− SE TP2": "%"}, "values": [{"molecule": "B4", "% decrease =/− SE TP2": "5 ± 5"}, {"molecule": "B5", "% decrease =/− SE TP2": "8 ± 7"}, {"molecule": "B6", "% decrease =/− SE TP2": "14 ± 6"}, {"molecule": "B7", "% decrease =/− SE TP2": "4 ± 5"}]}]}
